Measurements reported in patent US20110039779A1, “IGF-1R BINDING PROTEINS AND ANTAGONISTS” (priority 2007, published 2011).

Columns and labels:
[1] = biological target: IGF-1R on SW480 cells, P08069; experiment: cell-based or functional assay
[2] = biological target: IGF-1R on MCF-7 cells (MCF-7S8, MCF7) (human), P08069; experiment: cell-based or functional assay
Sequence of IGF-1R on MCF-7 cells (MCF-7S8, MCF7) (human), P08069 (P08069 31-1367): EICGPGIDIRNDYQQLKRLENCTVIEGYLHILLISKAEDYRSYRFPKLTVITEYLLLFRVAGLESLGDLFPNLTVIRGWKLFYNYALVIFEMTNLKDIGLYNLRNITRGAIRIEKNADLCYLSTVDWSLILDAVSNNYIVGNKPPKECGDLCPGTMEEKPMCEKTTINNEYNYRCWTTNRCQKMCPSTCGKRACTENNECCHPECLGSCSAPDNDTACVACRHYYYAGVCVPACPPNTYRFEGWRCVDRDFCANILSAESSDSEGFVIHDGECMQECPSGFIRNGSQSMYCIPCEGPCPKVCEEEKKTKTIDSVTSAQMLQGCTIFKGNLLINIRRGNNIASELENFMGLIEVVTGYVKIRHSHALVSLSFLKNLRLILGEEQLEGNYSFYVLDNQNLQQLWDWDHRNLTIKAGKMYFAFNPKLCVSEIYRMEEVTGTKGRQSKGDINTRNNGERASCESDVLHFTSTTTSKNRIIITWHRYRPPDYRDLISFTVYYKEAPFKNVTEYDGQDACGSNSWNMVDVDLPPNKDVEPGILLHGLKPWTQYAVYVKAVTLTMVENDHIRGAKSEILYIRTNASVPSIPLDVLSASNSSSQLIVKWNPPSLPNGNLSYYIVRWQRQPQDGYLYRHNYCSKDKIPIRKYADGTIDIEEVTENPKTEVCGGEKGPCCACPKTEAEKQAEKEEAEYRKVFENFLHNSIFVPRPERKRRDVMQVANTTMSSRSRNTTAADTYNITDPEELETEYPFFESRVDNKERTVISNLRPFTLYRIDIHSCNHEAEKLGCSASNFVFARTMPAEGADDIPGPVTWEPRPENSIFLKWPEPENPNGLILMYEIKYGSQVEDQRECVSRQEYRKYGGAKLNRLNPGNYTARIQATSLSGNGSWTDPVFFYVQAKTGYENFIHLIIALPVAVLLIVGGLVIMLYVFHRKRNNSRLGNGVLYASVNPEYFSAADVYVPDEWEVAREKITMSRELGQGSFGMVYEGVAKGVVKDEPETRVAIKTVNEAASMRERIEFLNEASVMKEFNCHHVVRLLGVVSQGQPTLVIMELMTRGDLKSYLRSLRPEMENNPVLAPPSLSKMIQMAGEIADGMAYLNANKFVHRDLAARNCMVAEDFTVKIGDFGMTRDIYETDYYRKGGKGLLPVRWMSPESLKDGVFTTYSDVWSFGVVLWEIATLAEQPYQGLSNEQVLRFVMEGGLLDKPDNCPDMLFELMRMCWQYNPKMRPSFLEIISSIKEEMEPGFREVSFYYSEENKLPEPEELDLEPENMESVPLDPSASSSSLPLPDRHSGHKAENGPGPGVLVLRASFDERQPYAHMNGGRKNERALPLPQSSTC

Sequence of IGF-1R on SW480 cells, P08069 (P08069 31-1367 limits assumed): as the sequence (P08069 31-1367) above

IC50, IGF-1 (10 nM)-induced proliferation of SW480 cells, exp. 13262-015 [1]: > 10 µM
IC50, IGF-1 (10 nM)-induced proliferation of SW480 cells, exp. 13262-016 [1]: > 10 µM
Cell [2]: 1000 nM
Binder: SFYSCLESLVNGGAERSDGQWEGCR (modifications not checked) [F113]
